# Data published in patent US12661385B2, “Modulation of mTORCI activity and autophagy via CIB2-RHEB interaction” (University of Maryland, Baltimore, priority 2018, dated 2026).
# Key:
# Rheb [1] = molecular target: Rheb (Homo sapiens, UniProt Q15382); test: NanoSPD (nanoTRAP) interaction assay in COS-7 cells, Rheb; format: binding; set-up: host or cells: COS-7; conditions: filopodia tip co-accumulation
# Description: (§1) FIG. 14. […] Arrowheads indicate filopodia tip accumulation of hCIB2-eGFP, * indicates no accumulation of indicted constructs in the red channel. c. Representative confocal images (top panel) showing CIB2 (green) interaction with Rheb (red) and Raptor (red) using NanoTRAP assay. […] Arrowheads indicate filopodia tip accumulation of indicated constructs, * indicates no accumulation of indicted construct in the red or far-red channel. Scale bar: 10 μm. d. Quantification for nanoTRAP assay for images shown above. *** p<0.001 by one-way ANOVA. e, Co-IP experiments show interaction between Raptor and CIB2.
# (§2) To reveal the molecular mechanism of CIB2-mediated mTORC1 modulation, we focused on the TSC-Rheb-mTORC1 axis. We performed an interaction screen of specific proteins including TSC1, TSC2, mTORC1-specific subunit Raptor, mTOR kinase, and Rheb. We used a recently-published quantitative interaction assay known as nanoscale pulldown 2.0 (NanoSPD), in which eGFP-nanobody tag fused to the myosin-HMM domain (nanoTRAP) preferentially migrates to the filopodia (Bird et al., Molecular Biology of the Cell 28, 463-475 (2017)). CIB2-eGFP (bait) migrated efficiently to filopodia in COS-7 cells only in the presence of the nanoTRAP. […] Many downstream and upstream targets of mTORC1 regulate its activity via binding to the mTORC1-specific subunit Raptor. […]
# Raptor [2] = molecular target: T1, Raptor (Homo sapiens, UniProt Q8N122); test: NanoSPD (nanoTRAP) interaction assay in COS-7 cells, Raptor; format: binding; set-up: HA (N); mCherry (N); conditions: filopodia tip co-accumulation
# T1 sequence (Q8N122 whole entry): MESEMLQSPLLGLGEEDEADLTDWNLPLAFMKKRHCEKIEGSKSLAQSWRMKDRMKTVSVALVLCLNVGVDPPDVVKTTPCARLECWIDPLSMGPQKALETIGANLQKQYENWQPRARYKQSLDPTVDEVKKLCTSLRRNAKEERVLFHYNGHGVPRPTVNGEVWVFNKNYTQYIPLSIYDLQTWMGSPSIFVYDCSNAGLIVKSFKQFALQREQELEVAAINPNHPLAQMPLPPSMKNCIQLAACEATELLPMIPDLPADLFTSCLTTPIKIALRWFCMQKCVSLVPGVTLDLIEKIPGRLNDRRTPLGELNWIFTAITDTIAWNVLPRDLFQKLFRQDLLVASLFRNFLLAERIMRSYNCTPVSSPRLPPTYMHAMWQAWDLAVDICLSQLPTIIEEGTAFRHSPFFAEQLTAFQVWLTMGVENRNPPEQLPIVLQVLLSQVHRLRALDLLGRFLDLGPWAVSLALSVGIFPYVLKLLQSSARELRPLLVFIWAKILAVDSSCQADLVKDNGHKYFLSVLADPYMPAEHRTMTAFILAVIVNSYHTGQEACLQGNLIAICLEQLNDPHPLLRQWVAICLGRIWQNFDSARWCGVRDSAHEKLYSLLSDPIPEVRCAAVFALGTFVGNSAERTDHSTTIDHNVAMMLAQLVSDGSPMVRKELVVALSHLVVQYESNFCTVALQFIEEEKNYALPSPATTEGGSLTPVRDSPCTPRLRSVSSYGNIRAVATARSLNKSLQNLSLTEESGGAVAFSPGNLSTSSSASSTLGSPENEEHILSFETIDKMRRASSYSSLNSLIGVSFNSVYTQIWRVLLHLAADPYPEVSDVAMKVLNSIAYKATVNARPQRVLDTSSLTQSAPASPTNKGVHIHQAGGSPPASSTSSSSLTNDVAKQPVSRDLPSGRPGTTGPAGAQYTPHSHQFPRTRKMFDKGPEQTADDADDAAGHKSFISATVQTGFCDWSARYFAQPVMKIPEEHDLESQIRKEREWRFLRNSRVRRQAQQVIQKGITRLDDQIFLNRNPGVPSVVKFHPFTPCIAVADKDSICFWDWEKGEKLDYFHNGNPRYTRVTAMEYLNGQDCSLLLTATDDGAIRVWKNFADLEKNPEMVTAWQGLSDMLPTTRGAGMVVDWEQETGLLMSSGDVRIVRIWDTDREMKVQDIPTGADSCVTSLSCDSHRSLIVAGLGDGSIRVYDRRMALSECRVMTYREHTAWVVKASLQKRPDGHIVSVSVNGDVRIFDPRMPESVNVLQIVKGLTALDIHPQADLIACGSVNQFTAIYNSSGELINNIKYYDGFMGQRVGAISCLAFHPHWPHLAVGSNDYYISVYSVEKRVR
# Description: as §1, §2
# Raptor [3] = molecular target: T1, Raptor; test: Co-immunoprecipitation of Raptor and CIB2; format: binding; set-up: HA (N); mCherry (N); host or cells: HEK293
# Description: as §1, §2
# mTORC1 [4] = test: Phosphoprotein immunoblots of HEK293 cells overexpressing increasing amounts of CIB2, mTORC1 targets; format: cell-based
# Experimental: (§3) FIG. 3. […] Note the stronger interaction between CIB2 and Rheb S20N variant as compared to Q64L variant (GDP vs GTP mimetic, respectively). c, CIB2 preferentially interacts with GDP-loaded Rheb is further confirmed by co-IP experiments of HA-GST-Rheb immobilized on […] and loaded with either GDP or GTPγS, followed by incubation with tdTomato-CIB2 lysate. d, Proposed model of CIB2 function in retinal sensory cells. […] Loss of CIB2 results in reduced autophagy and exacerbated mTORC1 signaling, thus leading to RPE pathology and secondary PR dysfunction. e, f Immunoblots from RPE/choroid lysates from dry AMD or control age-matched donors indicate reduced CIB2 expression, overactive mTORC1 and reduced autophagy, quantified in panel f. Unpaired two-tailed 1 test was used to determine statistical significance. p value of <0.05 (*), <0.01 (**), and <0.001 (***). Please note that one control sample (ψ) is outliner and is highly variant from the rest, Re-quantification, omitting the highly variant control sample, is shown in FIG. 15. g.
# mTORC1 integrates various metabolic and amino acid signals through its nutrient-sensing arm and growth signals, which converge on the small GTPase Rheb, via the TSC complex (Wolfson et al., Cell Metabolism 26, 301-309 (2017)). We first tested if CIB2 is a specific negative regulator of mTORC1 and/or mTORC2. We used HEK293 cells, because the mTORC1 signaling pathway is well-established in this cell line, and to expand CIB2 functions beyond the RPE.
# 80% confluent HEK293 cells in 10-cm dishes were transfected for co-IP experiments with 10 μg of indicated plasmid/s using the polyethylenimine (PEI) method (3:1::PEI:DNA). 2 plates per condition were used. 36 hr later the plates were chilled on ice, washed once with ice-cold PBS, and cells collected in ice-cold PBS and centrifuged for 2 min at 1500 RPM at 4° C. Cell pellet was then lysed in IP buffer (0.3% CHAPS, 40 mM HEPES, 2.5 mM MgCl2, 1× Protease inhibitors, 1 mM Na orthovanadate, 10 mM Na glycerophosphate, 10 mM NaF) on ice for 20 min, followed by centrifuging at full speed for 20 min at 4° C. […]
# mTORC2 = test: Phosphoprotein immunoblots of HEK293 cells overexpressing increasing amounts of CIB2, mTORC2 target; format: cell-based
# Experimental: as §3
# mTORC1 integrates various metabolic and amino acid signals through its nutrient-sensing arm and growth signals, which converge on the small GTPase Rheb, via the TSC complex (Wolfson et al., Cell Metabolism 26, 301-309 (2017)). We first tested if CIB2 is a specific negative regulator of mTORC1 and/or mTORC2. […]
# GDP-bound Rheb = molecular target: T2, GDP-bound Rheb (Homo sapiens, UniProt Q15382); test: Co-IP with bead-immobilized HA-GST-Rheb loaded with GDP or GTPγS; format: binding; conditions: glutathione bead-immobilized HA-GST-Rheb (WT) loaded with GDP or non-cleavable GTPγS, tdTomato-CIB2 lysate added
# T2 construct: host or cells: HEK293
# T2 sequence (Q15382 whole entry): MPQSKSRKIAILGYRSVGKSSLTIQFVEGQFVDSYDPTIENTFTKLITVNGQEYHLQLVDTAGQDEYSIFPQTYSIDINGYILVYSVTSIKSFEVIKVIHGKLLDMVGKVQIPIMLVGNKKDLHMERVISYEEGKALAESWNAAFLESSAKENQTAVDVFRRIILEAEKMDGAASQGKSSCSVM
# Experimental: as §3
# We tested the essentiality of nucleotide binding state of Rheb using co-IP assays. […] Next, we used the Q64L and S20L Rheb variants, which mimic the GTP- and GDP-bound state, respectively.
# For GTPγS of GDP loading experiments, cleared lysates of HEK293 cells over-expressing HA-GST-Rheb were prepared as described in buffer lacking MgCl2. […]
# Rheb [5] = test: Co-IP of tdTomato-CIB2 with HA-GST-Rheb and Rheb variants; format: binding; conditions: co-IP assay
# Experimental: as §3
# We tested the essentiality of nucleotide binding state of Rheb using co-IP assays. […] Next, we used the Q64L and […] Rheb variants, which mimic the GTP- and GDP-bound state, respectively. […]
# mTORC1 [6] = test: Phosphoprotein immunoblots of LAM-621 cells overexpressing CIB2, mTORC1 targets; format: cell-based, human; conditions: LAM-621 cells overexpressing increasing amounts of CIB2
# Sequence of Rheb (Homo sapiens, UniProt Q15382) (Q15382 whole entry): as above
molecule,measurement,setting,value
"CIB2: calcium and integrin binding protein 2, over-expressed in cells from plasmid constructs; SEQ ID NO:1 (human), SEQ ID NO:2 (mouse) (protein, left off: large carriers) MGNKQTIFTEEQLDNYQDCTFFNKKDILKLHARFYELAPNLVPMDYRKSPIVHVPMSLIIQMPELRENPFKERIVEAFSEDGEGNLTFNDFVDMFSVLCESAPRELKANYAFKIYDFNTDNFICKEDLEMTLARLTKSELEEDEVVLVCDKVIEEADLDGDGKLGFADFEDMIAKAPDFLSTFHIRI",Interaction with Rheb (NanoSPD),Rheb [1],interacts with Rheb
same,Interaction with Raptor (NanoSPD),Raptor [2],interacts with CIB2
same,Interaction with Raptor (co-IP),Raptor [3],confirmed the interaction
same,Phosphorylation of 4E-BP1,mTORC1 [4],decreasing phosphorylation
same,Phosphorylation of S6K1,mTORC1 [4],decreasing phosphorylation
same,Phosphorylation of ULK1,mTORC1 [4],decreasing phosphorylation
same,mTORC2-mediated phosphorylation of AKT,mTORC2,no changes
same,Binding to GDP-bound vs GTP-bound Rheb,GDP-bound Rheb,binds more strongly to GDP-bound Rheb than to GTP-bound Rheb
same,"Binding preference among Rheb-WT, Q64L (GTP mimetic) and S20L (GDP mimetic) variants",Rheb [5],bound preferentially to the S20L variant
same,Phosphorylated 4E-BP-1,mTORC1 [6],decreasing amounts
same,Phosphorylated ULK1,mTORC1 [6],decreasing amounts
